Experimental data from patent US20160319032A1.

Assays:
[1] = target: α4β1 integrin on J6.77 cells (UniProt P13612); assay: cell-based or functional assay
[2] = target: α5β1 integrin on K562 cells (UniProt P08648); assay: cell-based or functional assay
[3] = target: human αV on parental A375M cells (αVβ3 and αVβ5 integrins) (human) (UniProt P06756); assay: cell-based or functional assay
[4] = target: cynomolgus αVβ6 on cells (cynomolgus); assay: FACS, 1 ug/ml, HEK-293 transfected with cynomolgus αV and β6, day 1
[5] = target: cynomolgus αVβ6 on cells (cynomolgus); assay: FACS, K562 cells expressing cynomolgus αVβ6 (parental K562: 15)
[6] = target: cynomolgus αVβ6 on cells (cynomolgus); assay: FACS, 1 ug/ml, HEK-293 transfected with cynomolgus αV and β6, day 2
[7] = target: mouse αV on transfected HEK-293 cells (mouse) (UniProt P43406); assay: FACS, transfected HEK-293 (parental: 0)
Sequence of mouse αV on transfected HEK-293 cells (mouse) (P43406 31-1044): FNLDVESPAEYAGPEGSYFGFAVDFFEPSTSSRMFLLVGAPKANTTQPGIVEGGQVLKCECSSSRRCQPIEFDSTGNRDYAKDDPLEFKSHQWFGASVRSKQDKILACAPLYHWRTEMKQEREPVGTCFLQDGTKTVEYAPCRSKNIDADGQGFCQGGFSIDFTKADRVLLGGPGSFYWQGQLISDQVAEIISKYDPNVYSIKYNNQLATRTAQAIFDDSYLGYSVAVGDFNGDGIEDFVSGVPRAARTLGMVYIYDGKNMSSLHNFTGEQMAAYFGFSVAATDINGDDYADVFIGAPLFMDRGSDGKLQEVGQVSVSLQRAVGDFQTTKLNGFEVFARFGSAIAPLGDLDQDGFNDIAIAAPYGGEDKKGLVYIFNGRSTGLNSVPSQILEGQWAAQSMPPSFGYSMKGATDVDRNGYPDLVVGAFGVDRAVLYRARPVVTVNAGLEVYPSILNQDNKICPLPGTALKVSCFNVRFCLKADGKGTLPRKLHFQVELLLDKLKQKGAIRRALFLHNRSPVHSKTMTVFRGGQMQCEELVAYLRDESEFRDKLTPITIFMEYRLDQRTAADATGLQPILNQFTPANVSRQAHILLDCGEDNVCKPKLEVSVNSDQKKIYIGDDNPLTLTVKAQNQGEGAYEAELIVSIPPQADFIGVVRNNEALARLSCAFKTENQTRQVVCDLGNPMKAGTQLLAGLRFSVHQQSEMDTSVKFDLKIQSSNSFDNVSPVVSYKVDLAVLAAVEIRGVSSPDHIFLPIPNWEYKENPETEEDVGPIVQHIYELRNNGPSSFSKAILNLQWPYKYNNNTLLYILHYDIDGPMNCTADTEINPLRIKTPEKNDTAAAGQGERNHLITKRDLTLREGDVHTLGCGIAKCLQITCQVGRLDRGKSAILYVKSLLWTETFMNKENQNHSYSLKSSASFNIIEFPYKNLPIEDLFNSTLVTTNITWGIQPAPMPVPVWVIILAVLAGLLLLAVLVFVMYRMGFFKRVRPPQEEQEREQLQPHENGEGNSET

[8] = target: cynomolgus αV on transfected HEK-293 cells (cynomolgus); assay: FACS, transfected HEK-293 (parental: 0)
[9] = target: mouse αVβ6 on cells (mouse) (UniProt P43406); assay: FACS, transfected HEK-293 (parental: 0)
Sequence of mouse αVβ6 on cells (mouse) (P43406 31-1044, chain 1 of 2): as the sequence (P43406 31-1044) above
Sequence of mouse αVβ6 on cells (mouse) (Q9Z0T9 22-787, chain 2 of 2, further chain): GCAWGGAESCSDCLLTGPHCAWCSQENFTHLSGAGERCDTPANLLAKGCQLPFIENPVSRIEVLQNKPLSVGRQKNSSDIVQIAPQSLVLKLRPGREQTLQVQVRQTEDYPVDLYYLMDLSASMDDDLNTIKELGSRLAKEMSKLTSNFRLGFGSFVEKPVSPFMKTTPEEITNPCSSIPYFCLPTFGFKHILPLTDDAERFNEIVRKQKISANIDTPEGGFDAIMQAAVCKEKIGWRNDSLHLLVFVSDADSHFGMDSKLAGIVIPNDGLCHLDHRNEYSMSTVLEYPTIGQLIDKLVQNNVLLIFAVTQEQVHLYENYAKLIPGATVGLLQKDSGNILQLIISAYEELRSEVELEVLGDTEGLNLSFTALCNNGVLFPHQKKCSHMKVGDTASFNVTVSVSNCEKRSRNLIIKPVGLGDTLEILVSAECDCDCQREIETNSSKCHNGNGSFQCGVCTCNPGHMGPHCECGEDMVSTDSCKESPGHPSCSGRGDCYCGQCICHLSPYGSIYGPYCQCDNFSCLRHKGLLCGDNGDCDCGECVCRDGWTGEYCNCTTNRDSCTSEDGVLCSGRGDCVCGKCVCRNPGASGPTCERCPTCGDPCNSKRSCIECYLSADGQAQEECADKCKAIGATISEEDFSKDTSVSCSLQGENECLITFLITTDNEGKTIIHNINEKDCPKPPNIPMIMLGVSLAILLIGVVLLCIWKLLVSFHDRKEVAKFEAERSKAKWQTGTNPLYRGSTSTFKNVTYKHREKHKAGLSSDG

[10] = target: cynomolgus β6 on transfected HEK-293 cells (cynomolgus); assay: FACS, transfected HEK-293 (parental: 0)
[11] = target: mouse β6 on transfected HEK-293 cells (mouse) (UniProt Q9Z0T9); assay: FACS, transfected HEK-293 (parental: 0)
Sequence of mouse β6 on transfected HEK-293 cells (mouse) (Q9Z0T9 22-787): as the sequence (Q9Z0T9 22-787, chain 2 of 2, further chain) above

[12] = target: cynomolgus αVβ6 on cells (cynomolgus); assay: FACS, transfected HEK-293 (parental: 0)
[13] = target: human αV on parental A375M cells (αVβ3 and αVβ5 integrins) (human) (UniProt P06756); assay: FACS, 1 ug/ml, parental A375M cells, day 2
soluble αVβ6 (human) = soluble αVβ6 (human) (UniProt P06756); assay: ELISA, 1 ug/mL on plate-coated soluble αVβ6
[14] = target: human αV on parental A375M cells (αVβ3 and αVβ5 integrins) (human) (UniProt P06756); assay: FACS, 1 ug/ml, parental A375M cells, day 1
[15] = target: human αVβ6 integrin on cells (human) (UniProt P06756); assay: cell-based or functional assay
Sequence of human αVβ6 integrin on cells (human) (P06756 31-1048, chain 1 of 2): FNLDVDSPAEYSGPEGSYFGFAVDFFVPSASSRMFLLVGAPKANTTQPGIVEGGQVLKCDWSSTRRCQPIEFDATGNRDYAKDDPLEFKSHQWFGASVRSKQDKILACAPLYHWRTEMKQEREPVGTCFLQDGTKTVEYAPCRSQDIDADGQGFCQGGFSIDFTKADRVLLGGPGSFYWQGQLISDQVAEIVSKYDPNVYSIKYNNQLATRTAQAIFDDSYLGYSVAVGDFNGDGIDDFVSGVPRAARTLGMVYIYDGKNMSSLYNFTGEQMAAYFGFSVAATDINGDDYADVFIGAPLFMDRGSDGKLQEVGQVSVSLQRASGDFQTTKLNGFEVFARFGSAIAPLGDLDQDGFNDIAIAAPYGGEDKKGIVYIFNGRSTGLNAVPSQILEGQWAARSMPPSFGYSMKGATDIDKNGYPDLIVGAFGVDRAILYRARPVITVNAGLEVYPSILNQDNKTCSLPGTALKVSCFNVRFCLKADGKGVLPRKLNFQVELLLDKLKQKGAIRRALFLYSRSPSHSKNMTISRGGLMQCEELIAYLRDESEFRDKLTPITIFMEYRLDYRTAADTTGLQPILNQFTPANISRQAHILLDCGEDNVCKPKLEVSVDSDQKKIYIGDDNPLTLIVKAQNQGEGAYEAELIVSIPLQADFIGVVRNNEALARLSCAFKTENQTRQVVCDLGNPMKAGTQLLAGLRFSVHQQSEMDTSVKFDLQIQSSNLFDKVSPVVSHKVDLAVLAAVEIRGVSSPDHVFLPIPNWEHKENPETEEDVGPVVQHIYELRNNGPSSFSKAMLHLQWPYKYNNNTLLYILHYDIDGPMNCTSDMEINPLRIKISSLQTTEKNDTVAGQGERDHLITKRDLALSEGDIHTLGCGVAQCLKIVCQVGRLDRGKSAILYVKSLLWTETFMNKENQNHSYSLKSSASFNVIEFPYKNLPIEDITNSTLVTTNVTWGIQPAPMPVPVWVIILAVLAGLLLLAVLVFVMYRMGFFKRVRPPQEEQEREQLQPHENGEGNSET
Sequence of human αVβ6 integrin on cells (human) (P18564 22-788, chain 2 of 2, further chain): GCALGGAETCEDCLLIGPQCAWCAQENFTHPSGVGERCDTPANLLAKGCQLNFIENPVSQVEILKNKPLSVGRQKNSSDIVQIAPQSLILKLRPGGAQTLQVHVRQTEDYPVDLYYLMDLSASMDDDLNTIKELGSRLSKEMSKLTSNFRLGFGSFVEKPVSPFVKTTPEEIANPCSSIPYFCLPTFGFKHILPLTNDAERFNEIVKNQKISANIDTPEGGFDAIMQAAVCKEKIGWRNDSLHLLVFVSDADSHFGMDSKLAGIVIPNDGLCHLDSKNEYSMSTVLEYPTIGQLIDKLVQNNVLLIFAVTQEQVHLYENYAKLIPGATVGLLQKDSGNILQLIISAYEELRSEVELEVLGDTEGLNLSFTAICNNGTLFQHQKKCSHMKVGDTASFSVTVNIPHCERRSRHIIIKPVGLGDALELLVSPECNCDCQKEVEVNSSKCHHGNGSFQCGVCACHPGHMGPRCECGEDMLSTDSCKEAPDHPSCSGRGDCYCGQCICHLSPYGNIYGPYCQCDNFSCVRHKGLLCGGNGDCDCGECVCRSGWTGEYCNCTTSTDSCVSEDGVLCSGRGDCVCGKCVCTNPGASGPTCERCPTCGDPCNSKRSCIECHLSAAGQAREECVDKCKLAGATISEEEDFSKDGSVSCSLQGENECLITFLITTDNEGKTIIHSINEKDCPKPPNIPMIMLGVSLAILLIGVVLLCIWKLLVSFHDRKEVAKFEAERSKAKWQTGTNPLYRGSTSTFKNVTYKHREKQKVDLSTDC

[16] = target: human αVβ6 integrin on cells (human) (UniProt P06756); assay: FMAT, 1 ug/mL, HEK 293 cells stably overexpressing αVβ6
[17] = target: mouse αVβ6 on cells (mouse) (UniProt P43406); assay: FACS, K562 cells expressing mouse αVβ6 (parental K562: 15)

Sequence of human αV on parental A375M cells (αVβ3 and αVβ5 integrins) (human) (P06756 31-1048 A375M, form in doubt): as the sequence (P06756 31-1048, chain 1 of 2) above, with A345M counted along it

Question: With Human IgG1 (antibody) as the substance, how does the Percent Inhibition of J6.77 adhesion to CS-1 peptide, 5 ug/ml [1] read?
Answer: -6%

Question: Human IgG2 (antibody) was tested. Which Percent Inhibition of J6.77 adhesion to CS-1 peptide, 5 ug/ml [1] did it give?
Answer: -9%

Question: For Human IgG Isotype Control (antibody), which % Inhibition of K562 adhesion to fibronectin [2] is on record?
Answer: -12%

Question: And the Percent Inhibition of K562 adhesion to FN9-10, 5 ug/ml [2]?
Answer: 11%

Question: What about the Percent Inhibition of A375M adhesion to osteopontin peptide, 5 ug/ml [3] of the same substance?
Answer: 3%

Question: How did the Percent Inhibition of A375M adhesion to osteopontin peptide, 5 ug/ml [3] turn out when Mouse IgG Control (antibody) was run?
Answer: 5%

Question: With “murine anti-αVβ6 antibody 2077z (Cat#MAB2077z, Chemicon)” as the substance, how does the % Cells Shifted [4] read?
Answer: 42%

Question: And the GeoMean [4]?
Answer: 55.5

Question: And the Geometric Mean Shift (arbitrary units) [5]?
Answer: 84

Question: What about the % Cells Shifted [6] of the same substance?
Answer: 11%

Question: And the GeoMean [6]?
Answer: 28.1

Question: What about the percent of cells shifted [7] of the same substance?
Answer: 1%

Question: And the percent of cells shifted [8]?
Answer: 0%

Question: And the percent of cells shifted [9]?
Answer: 45%

Question: And the percent of cells shifted [10]?
Answer: 5%

Question: What about the percent of cells shifted [11] of the same substance?
Answer: 11%

Question: What about the percent of cells shifted [12] of the same substance?
Answer: 20%

Question: What about the % Cells Shifted [13] of the same substance?
Answer: 5%

Question: And the GeoMean [13]?
Answer: 15.4

Question: And the ELISA OD (soluble αVβ6 (human))?
Answer: 6 OD

Question: And the % Cells Shifted [14]?
Answer: 30%

Question: What about the GeoMean [14] of the same substance?
Answer: 2.03

Question: And the Estimated IC50, adhesion assay, n = 1 [15]?
Answer: 0.226 µg/mL

Question: What about the Estimated IC50, adhesion assay, n = 2 [15] of the same substance?
Answer: 0.185 µg/mL

Question: And the Estimated IC50, adhesion assay, n = 3 [15]?
Answer: 0.286 µg/mL

Question: What about the FMAT Count [16] of the same substance?
Answer: 67

Question: What about the FMAT FL1 [16] of the same substance?
Answer: 659

Question: What about the FMAT FL1XCount [16] of the same substance?
Answer: 44200

Question: What about the Geometric Mean Shift (arbitrary units) [17] of the same substance?
Answer: 122
